Measured values: article PMC12615753, “Glutathione as a taste modulator: molecular mechanisms of interaction with umami and sweet taste receptors” (Food Chemistry: Molecular Sciences, 2025)
Read-outs that look alike come from different tables or passages of the source.

Key:
hTAS1R1/rTAS1R3 = molecular target: T1, hTAS1R1/rTAS1R3 (UniProt Q7RTX1+Q923K1); assay: Calcium assay (GCaMP6s, Gα15i2) in transiently transfected HEK293T/17 cells; format: cell-based, human, rat
T1 construct: UniProtKB number Q7RTX1–1); The cDNA coding region of rTAS1R3 was synthesized with optimized-codon usage for human expression; expressed in transfected cells; host or cells: HEK293T/17 (ATCC CRL-11268)
T1 sequence (Q7RTX1 21-841): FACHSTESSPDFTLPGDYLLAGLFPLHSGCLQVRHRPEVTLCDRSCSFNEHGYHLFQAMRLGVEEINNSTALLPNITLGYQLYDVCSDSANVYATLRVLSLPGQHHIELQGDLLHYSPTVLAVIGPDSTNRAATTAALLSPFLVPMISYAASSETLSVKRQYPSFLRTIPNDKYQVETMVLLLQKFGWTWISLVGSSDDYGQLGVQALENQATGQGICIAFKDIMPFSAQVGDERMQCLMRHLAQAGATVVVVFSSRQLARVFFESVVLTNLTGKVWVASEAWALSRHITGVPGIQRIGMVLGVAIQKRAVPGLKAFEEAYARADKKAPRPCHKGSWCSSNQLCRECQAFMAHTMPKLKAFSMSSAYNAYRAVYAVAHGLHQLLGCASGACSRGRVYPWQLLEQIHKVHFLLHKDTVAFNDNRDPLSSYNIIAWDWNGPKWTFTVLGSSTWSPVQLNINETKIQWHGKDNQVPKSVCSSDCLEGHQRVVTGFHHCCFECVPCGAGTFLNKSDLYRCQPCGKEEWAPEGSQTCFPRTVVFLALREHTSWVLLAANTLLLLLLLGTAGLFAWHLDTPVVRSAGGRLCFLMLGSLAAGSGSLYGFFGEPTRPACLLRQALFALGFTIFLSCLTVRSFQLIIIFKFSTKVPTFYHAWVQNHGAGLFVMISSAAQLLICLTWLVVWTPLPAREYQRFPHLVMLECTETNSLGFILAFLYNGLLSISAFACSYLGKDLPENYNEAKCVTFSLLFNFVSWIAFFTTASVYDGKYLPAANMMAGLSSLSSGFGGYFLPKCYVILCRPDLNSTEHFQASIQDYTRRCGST
T1 sequence (Q923K1 21-858): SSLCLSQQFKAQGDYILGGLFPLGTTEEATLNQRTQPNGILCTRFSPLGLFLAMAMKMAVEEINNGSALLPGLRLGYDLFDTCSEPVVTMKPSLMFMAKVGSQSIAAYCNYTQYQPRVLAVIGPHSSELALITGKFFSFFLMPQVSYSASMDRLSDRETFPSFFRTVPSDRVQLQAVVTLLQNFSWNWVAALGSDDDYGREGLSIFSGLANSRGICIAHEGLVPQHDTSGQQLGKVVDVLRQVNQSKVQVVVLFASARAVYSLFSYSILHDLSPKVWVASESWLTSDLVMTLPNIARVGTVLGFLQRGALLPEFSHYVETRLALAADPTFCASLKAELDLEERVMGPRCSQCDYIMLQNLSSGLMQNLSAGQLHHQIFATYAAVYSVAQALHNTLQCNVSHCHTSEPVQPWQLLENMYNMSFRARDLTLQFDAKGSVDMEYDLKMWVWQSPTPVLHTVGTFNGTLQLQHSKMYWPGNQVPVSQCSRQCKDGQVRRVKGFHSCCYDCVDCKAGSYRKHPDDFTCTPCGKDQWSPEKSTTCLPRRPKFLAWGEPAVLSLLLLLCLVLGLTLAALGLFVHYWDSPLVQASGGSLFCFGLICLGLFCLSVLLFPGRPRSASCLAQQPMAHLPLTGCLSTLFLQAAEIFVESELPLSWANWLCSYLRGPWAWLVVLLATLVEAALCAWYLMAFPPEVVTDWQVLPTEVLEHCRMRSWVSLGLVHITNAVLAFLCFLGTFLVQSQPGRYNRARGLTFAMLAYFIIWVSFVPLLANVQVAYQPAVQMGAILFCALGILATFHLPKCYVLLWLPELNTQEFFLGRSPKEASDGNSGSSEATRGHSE
Protocol: To this end, hTAS1R1/rTAS1R3 and the chimeric G protein Gα15i2 were transiently expressed in HEK293T cells. Cellular responses were assessed via calcium imaging using a fluorescent protein calcium biosensor (GCaMP6s) and compared with those of mock-transfected cells.

umami perception = conditions: ref Shigemura et al., 2009, cited from earlier work
[1] = molecular target: hTAS1R1/rTAS1R3 umami taste receptor (wild type) (human | rat) (UniProt Q7RTX1)
[2] = molecular target: hTAS1R1(Q278A)/rTAS1R3 (human | rat) (UniProt Q7RTX1)
[3] = molecular target: hTAS1R1(L223A)/rTAS1R3 (human | rat) (UniProt Q7RTX1)
[4] = molecular target: hTAS1R1(Q278Y)/rTAS1R3 (human | rat) (UniProt Q7RTX1)
[5] = molecular target: hTAS1R1(Q278K)/rTAS1R3 (human | rat) (UniProt Q7RTX1)
[6] = molecular target: hTAS1R1(A170W)/rTAS1R3 (human | rat) (UniProt Q7RTX1)
[7] = molecular target: hTAS1R1(R277A)/rTAS1R3 (human | rat) (UniProt Q7RTX1)
[8] = molecular target: hTAS1R1(H71A)/rTAS1R3 (human | rat) (UniProt Q7RTX1)
[9] = molecular target: hTAS1R1(A302W)/rTAS1R3 (human | rat) (UniProt Q7RTX1)
[10] = molecular target: hTAS1R1(H71L)/rTAS1R3 (human | rat) (UniProt Q7RTX1)
[11] = molecular target: hTAS1R1/rTAS1R3 umami taste receptor (wild type) (human | rat) (UniProt Q7RTX1); remark: listed apart in the source
[12] = molecular target: hTAS1R1(R151A)/rTAS1R3 (human | rat) (UniProt Q7RTX1)
[13] = molecular target: hTAS1R1(H308A)/rTAS1R3 (human | rat) (UniProt Q7RTX1)
[14] = molecular target: hTAS1R1(D192A)/rTAS1R3 (human | rat) (UniProt Q7RTX1)
[15] = molecular target: hTAS1R2/hTAS1R3 sweet taste receptor (human) (UniProt Q8TE23)
[16] = molecular target: hTAS1R2/rTAS1R3 sweet taste receptor (human | rat) (UniProt Q8TE23)
[17] = molecular target: hTAS1R1 subunit expressed alone (human) (UniProt Q7RTX1)

hTAS1R2/rTAS1R3 sweet taste receptor (human | rat), sequence (Q8TE23 20-839): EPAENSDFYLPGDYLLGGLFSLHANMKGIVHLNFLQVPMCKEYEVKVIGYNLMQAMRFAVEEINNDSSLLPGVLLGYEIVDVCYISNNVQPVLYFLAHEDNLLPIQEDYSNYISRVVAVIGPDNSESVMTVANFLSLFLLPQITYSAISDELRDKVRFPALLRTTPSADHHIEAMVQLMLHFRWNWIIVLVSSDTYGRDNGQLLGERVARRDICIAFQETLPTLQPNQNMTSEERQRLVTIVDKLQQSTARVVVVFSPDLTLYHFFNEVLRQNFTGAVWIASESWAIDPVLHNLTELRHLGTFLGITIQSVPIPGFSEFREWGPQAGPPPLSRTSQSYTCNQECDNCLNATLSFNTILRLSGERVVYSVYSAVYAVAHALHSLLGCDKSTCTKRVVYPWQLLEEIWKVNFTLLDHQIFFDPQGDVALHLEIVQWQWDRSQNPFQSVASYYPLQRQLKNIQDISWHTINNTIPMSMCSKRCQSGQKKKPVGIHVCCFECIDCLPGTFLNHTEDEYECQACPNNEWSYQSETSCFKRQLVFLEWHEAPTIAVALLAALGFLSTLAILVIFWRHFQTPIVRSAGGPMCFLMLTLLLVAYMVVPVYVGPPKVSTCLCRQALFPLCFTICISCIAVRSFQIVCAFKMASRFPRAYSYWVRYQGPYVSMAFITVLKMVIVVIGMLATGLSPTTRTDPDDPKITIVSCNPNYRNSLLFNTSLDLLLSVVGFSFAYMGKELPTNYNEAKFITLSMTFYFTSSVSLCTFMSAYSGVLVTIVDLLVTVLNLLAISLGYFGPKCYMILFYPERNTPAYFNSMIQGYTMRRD
hTAS1R2/hTAS1R3 sweet taste receptor (human), sequence (Q8TE23 20-839, chain 1 of 2): as the sequence (Q8TE23 20-839) above
hTAS1R2/hTAS1R3 sweet taste receptor (human), sequence (Q7RTX0 21-852, chain 2 of 2, further chain): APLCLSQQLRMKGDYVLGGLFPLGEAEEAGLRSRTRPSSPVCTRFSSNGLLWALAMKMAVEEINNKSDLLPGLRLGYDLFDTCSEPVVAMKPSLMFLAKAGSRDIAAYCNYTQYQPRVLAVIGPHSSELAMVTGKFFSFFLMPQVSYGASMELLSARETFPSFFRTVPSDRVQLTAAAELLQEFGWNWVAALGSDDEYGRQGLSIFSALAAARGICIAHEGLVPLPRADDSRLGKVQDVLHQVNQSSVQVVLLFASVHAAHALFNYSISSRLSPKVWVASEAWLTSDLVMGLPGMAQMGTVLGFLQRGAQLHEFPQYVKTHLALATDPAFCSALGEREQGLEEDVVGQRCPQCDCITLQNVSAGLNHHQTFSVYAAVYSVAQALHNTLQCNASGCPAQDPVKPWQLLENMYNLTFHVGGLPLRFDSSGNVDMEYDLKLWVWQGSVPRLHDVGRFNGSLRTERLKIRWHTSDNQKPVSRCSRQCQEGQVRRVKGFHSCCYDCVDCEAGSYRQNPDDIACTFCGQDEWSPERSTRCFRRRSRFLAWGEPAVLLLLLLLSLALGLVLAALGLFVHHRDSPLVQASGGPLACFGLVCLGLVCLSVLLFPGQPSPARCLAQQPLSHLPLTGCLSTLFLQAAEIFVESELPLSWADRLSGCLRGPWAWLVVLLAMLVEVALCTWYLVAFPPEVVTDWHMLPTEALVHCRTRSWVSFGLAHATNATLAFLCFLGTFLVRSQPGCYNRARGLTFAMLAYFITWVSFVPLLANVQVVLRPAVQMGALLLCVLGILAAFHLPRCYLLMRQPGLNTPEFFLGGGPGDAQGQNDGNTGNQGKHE

In the case of Nc1nc2c(ncn2[C@@H]2O[C@H](COP(=O)(O)O)[C@@H](O)[C@H]2O)c(=O)[nH]1 [GMP, guanosine 5′-monophosphate, reference compound], the “effect of the added 5′-ribonucleotide on the response to GSH” value (hTAS1R1/rTAS1R3; Fig. 6C–D) is reported as “did not significantly increase” and the “activation of the receptor” value (hTAS1R1/rTAS1R3; compound alone) is reported as “did not activate”.

With N[C@@H](CCC(=O)N[C@@H](CS)C(=O)O)C(=O)O [Glu-Cys, γ-L-Glutamyl-L-cysteine] the EC50 (hTAS1R1/rTAS1R3; agonist alone, Fig. 1, Fig. S2) was 3.2 ± 1.54 mM and the “max ∆F/F0” value (hTAS1R1/rTAS1R3; agonist alone, Fig. 1, Fig. S2) was 0.42 ± 0.07.

For N[C@@H](CCC(=O)O)C(=O)[O-].[Na+] [MSG, monosodium glutamate], the sensory recognition threshold (umami perception; MSG alone) is given as 7.66 mM and the sensory recognition threshold (umami perception; in the presence of 0.05 mM IMP) is given as 0.20 mM.

“Reduced L-glutathione (γ-L-glutamyl-L-cysteinyl-glycine) (peptide)” gave an EC50 of GSH, calcium response (GCaMP6s fluorescence) of transfected HEK293T cells [1] of 2.15 mM, an EC50 of GSH, calcium response of transfected HEK293 cells [2] of 3.42 mM and an EC50 of GSH, calcium response of transfected HEK293 cells [3] of 2.32 mM. The EC50 of GSH, calcium response of transfected HEK293 cells [4] was 3.96 mM, the EC50 of GSH, calcium response of transfected HEK293 cells [5] was 5.66 mM and the EC50 of GSH, calcium response of transfected HEK293 cells [6] was 5.29 mM. The EC50 of GSH, calcium response of transfected HEK293 cells [7] was 1.84 mM, the EC50 of GSH, calcium response of transfected HEK293 cells [8] was 2.03 mM and the EC50 of GSH, calcium response of transfected HEK293 cells [9] was 5.32 mM. The EC50 of GSH, calcium response of transfected HEK293 cells [10] was 2.27 mM, the EC50 of GSH, calcium response of transfected HEK293 cells (mutant series) [11] was 2.52 mM and the EC50 of GSH, calcium response of transfected HEK293 cells [12] was 2.59 mM. The EC50 of GSH, calcium response of transfected HEK293 cells [13] was 3.25 mM, the EC50 of GSH, calcium response of transfected HEK293 cells [14] was 3.25 mM and the EC50 of GSH, calcium response of cells expressing the sweet taste receptor [15] was 0.591 mM. The EC50 of GSH, calcium response of cells expressing the sweet taste receptor [16] was 4.06 mM and the EC50 of GSH in the presence of 0.1 μM S807, calcium response of HEK293 cells expressing hTAS1R1 alone [17] was 0.281 mM.

In the case of γ-L-Glutamyl-L-cysteine (peptide), the EC50 of Glu-Cys, calcium response (GCaMP6s fluorescence) of transfected HEK293T cells [1] is reported as 3.2 mM.
